The results in this text go back to paper PMC3940207 (Molecular cell, 2014).

In general, Kd refers to the equilibrium constant for the complex coming apart. As a reminder, the stoichiometry N is a count of units in the complex or per binding partner.

The target of test [1] is single chain H2B_(36-130) and H2A.Z_(22-118) chimera. In words: ITC. In general terms: Isothermal titration calorimetry measures the heat released or taken up as one component is titrated into another.
For test [2] the target is unchanged. In words: AUC.
In a further test the target is T1, Swr1_(504-650) (S. cerevisiae, UniProt Q05471 505-651).
T1 sequence (looked up): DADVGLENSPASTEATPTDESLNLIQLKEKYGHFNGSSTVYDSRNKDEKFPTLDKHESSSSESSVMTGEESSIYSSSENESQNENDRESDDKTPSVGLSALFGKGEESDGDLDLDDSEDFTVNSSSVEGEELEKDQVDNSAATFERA
In words: ITC.

In test [1], “Swr1_(504-650) (from UniProt Q05471 505-651) (domain or fragment)” yielded a Kd of 0.007 µM.
The molecule “Swr1_(589-650) (from UniProt Q05471 590-651) (domain or fragment)” showed a stoichiometry N in test [2] of 1.

B1: scH2B-H2A (other)
chain: MRKETYSSYIYKVLKQTHPDTGISQKSMSILNSFVNDIFERIATEASKLAAYNKKSTISAREIQTAVRLILPGELAKHAVSEGTRAVTKYSSSTQAQSRSAKAGLTFPVGRVHRLLRRGNYAQRIGSGAPVYLTAVLEYLAAEILELAGNAARDNKKTRIIPRHLQLAIRNDDELNKLLGNVTIAQGGVLPNI
In the case of B1, in the test with Swr1_(504-650), the Kd is roughly 0.151 µM.
